Data taken from article PMC6233201 (Scientific Reports, 2018).

Biological target: the molecule itself
Experiment: SEC; gel filtration (Superdex 200 10/300 GL) of the Ni-NTA purified DEDs; self-association read from the elution position (monomer, dimer, oligomer peaks)

B1: wild-type death effector domains (DEDs) of human caspase-8 (residues 1-188) with a C-terminal His6 tag (domain or fragment, UniProt Q14790-1 1-188, looked up)
chain: MDFSRNLYDIGEQLDSEDLASLKFLSLDYIPQRKQEPIKDALMLFQRLQEKRMLEESNLSFLKELLFRINRLDLLITYLNTRKEEMERELQTPGRAQISAYRVMLYQISEEVSRSELRSFKFLLQEEISKCKLDDDMNLLDIFIEMEKRVILGEGKLDILKRVCAQINKSLLKIINDYEEFSKERSSS
notes: tandem death effector domains (DED) of human caspase-8, residues 1-188, UniProt Q14790-1; The soluble protein was mixed with E. coli slyD after purification; also called DED^WT; wild-type DEDs; source: E. coli Rosetta (DE3) pLysS, pET-21b, purified (Ni-NTA, gel filtration); very low yields of soluble protein; not shown: His6, C-terminal, kept
binding result: binds
